Measurements as given in publication PMC7872222.

Target: biotinylated FYCO1 peptide (human)
Experiment: BLI

## GABARAP (from UniProt O95166 1-117) (natural protein)
  Kd: 1400 nM
